Drawing on patent US20230226096A1 (Orna Therapeutics, Inc., priority 2020, published 2023), this text covers Expression for eleven molecules.

The chains are these.
B1: Rhimavirus A (nucleic acid)
DNA: CGAATTCCGGACATCTCCTTTCGGGGGCGAGCGTCACCGTGCCCCTCATGGAGGCAACTGTGCCTCTAATCGGTGACCCACTGAGAAAATTTTCTTTCTACGTGGCTAAACAATGCAACTTTATAATAACACAAATTTAATGCTTAATCTTAACACCAAAGATTTGAACATATGTTTGGAAAGTGGCACACTTCAAACATTGCATAGTTGCTAGGGGTGAAGTCCCTTTAAGGGGTTGCAGAGGATCTTTCCTCTTTATGAGCGGCTAGGAGTATCTTCTTGATATTATGTGGTCGTGCAACTCACTTCCCAGATGTATGACGGTGTACTAAGCGATTGGAACTAGTCATAACCTCTTTGAATTTTGGTATTGCGAGTCTAGCAGGGGGATATTTACCGCTAAAGGGTGACACACTCGTGAGGGTGGCCTTTGGTGTGTGTATATTTATTCCGCCCATCTTGCATGGGGTGCTAAAATTCTAATGCTGTGAAATAACCATTTTCTGAATACATTCTCTACATTTGGAGTCAAATATGAGGAATGCCACTCAGGTACCCTTGACATGATCTTGGATCTGAGAGTGGGCTAATTATCTAATTATTTGGCGACTTTCTAAAATCTTCTGTTTTTAGTGGTGACAATTTATGGTTATAAA
B2: Basella alba endornavirus (nucleic acid)
DNA: GGAATATGGCTAATCGGCTTATTCTAATCAAACGCAAAAGACTTATGACACAGACCGGACCTGAACGAGGTGATAAAACACCTCGTTCAGGTTCAAAACGTAGAAGATTCATTCCTCCGATTAGAAATACAACTACGTCTAAGCACGATAGAGATGGTATCAAGATCGGTTTTAGACCACGAGAAAATCGGCAAATGAAAGTACAAGTTGGGTGGTTTAAATTACCAAGAACAGTAACATTCAAGAACAACGGCAACCCGTTTGTTACCTCATTTCGTAAATTGTTTAGAAGTAACAAAGATAAATTATTTAATGGTGGGAAGAACCTAAGTACAGTACCAGCCAGAAGTAGTGAAATGACAGAAATGTTTATGTTCATGTCCACGCTAGAGGGCCAATTGTCAATCCAAGATCGAGATCCAAAAATAATCAATAAGTCTATATACATGATAGAGGTA
B3: Avisivirus Pf-CHK1 (nucleic acid, listed as Avisivirus sp.)
DNA: CATTCCCCTTTCCCCAGCCATGGGTTAAATGGCCCCTCACCAGGTTCGGTGCTGTCTAGGCTTCCAGTAAAGAAGTCAACCGAGCATTGAACAAAACCTCAGTGGGTATGGTAGTTAACCCCGTCCACTGGACAACTTTGTCCTCTTAAAAGTGGATCAATCCACCCCAACTCCCCCCCTAGCCACCTGAGCCATGGTGGATAGCAGTGACGAAACTAGGGACCCCAATACCTCTAGTGCCAAGAGAATTCCCCCCTCGCGAGAGGTGCTCTTGGGCCCGAAAGGCTAGTTGGCAGGGTGAAGTGAAGGAAGCTGCTAGCGTGGCAACCTTAAGCGTAGCCCGAAGCTGACCTTAGAGGTTAACCCTAGTGGACCACTGGATGAAGCTGTGGAGGTGGTGGATAGGAAAGTTGGCCACTTGTGAGTAGATGCCCAGAAGGCATAAGGCTGATCTGGGGCCAGTGACTATACCGTTCCGGTAAACCTGGTATAAAAACCATGAAAGCAAGTGGGTTTAAAATTTCTTCTAATTCCTTCATTTCAGTAGTGATAACTGGCAGA
B4: Icavirus (nucleic acid)
DNA: CGAAGTTTAAGCTAAGCACCCTCGGGCGTTCCCGGATTATGTGATCACATCAATTTGATGGCTGGTCACCACGCAACGCCTGGAGAGATACTCTTACTTTTCTCTTAAGATCCCCGGTCATTTGACGCTTGTAGGATGATAGGGTTATTTTCCACTATAAATACTTTCATACTCTTGGATGTTCTATATCCAAGACGGGAGGACCTACCCCGTACCCCTTAGAGGTGAGATGCCAAGAACAGGCCCTTTCTGTTCTCTCGACAATGGCATCATAGGCAACAAGCATCACACCAAGATTGCTAAGTTTTGTTAAGAGTTCTTCAAGCTATAGGGTGGCTGTAGCGACCTTCTGATGCCTGCGGATTTCCCCACGGAGCGATCCGTGCCACAGGGGCCAAAAGCCACGGCTAACGCCCATCAGGAGCGGCACTTACCCCGTGCCCCACCCTTGAAACTTGAATGTTCACACTGGCTTCTCTCGGCTTTCTGAACTGTCTGCTTGTTGGGGCCCCGAAGGATGCCCTGGAGGTACCCCATTTTATGGGATCTGACCAGGGGACACCTCAGCTCTCTAAGTTGCTGGTGTTTAAAAAACGTCTAAGGGCCCCCACCCCTTAGGTGGAGGGATCCACCTTTCCTTTATTTTTTAAAACTCTTTTATGGTCACAATTGTTT
B5: Bat Hp-betacoronavirus (nucleic acid)
DNA: TTAAGCTTCGGCTTGTTGCATAGGACCGGAAAGGTACTATCTACCCTAACTCTTGTAGTTAGACTCTCTAAACGAACTTTAAAACTGGTTGTGTCCTTCAGTAGTCTGTATGGCCATTGGAGGCACACCGGTAATTATCAAATACTAAGAAGATTCATAGTACATCCTTGTCTAGCTTTTGGTTGGCAGTGAGCCTACGGTTTCGTCCGTGTCGCTCACAATTATCCACACAGTAGGTTTCGTCCGCTGTGGTTGAGTTGCTAGTCCGTTGCTGTTTCGTCAGCCATCTACAACTCGACACC
modifications: Bat Hp-betacoronavirus
B6: Antarctic penguin virus A (nucleic acid)
DNA: CTAGGAGACTACGCAGTGGGATAAGATGACTATGATGTCGTACGGGCAGAAGCCAGTACAGTCGAAGTCGAGACCGACGTCGAGGATTTGACTCTGCCTGACCTAGTGCCATC
modifications: chemistry not fully specified; the letters are possibly those of the target site
B7: Rosavirus 2 GA7403 (nucleic acid, listed as Rosavirus sp.)
DNA: CCAGGCATGGCGTTAAACATGCATTCCCTTCCCCTAGTAACCTCCCTTCGCCCCTTCCCCACGTTGTACCCCCTCCGAGATGGCTGCTAAGGCGCTTGCTGCTACAGCAGTCTCGTGTTTCGGGTGTTATAAGTGCTTTCTTTTCCACTCCACTCCCTGCCTATGGGGAGCGGAACGGCCTTGTCTCGGTCGTTGCTTCTTGCAGATCTTCACCCCTCCAGGCTTTCTGGACTCGCCAGGGGTGGAGTAGTAGGCGCACTGTCTAAGTGAAGGTAGCAGTGTTGTTGGCGAAGAGTTGTGGACCTACTTTGAGTTTGTAGCGATCATCCAGAGCTAGCGGATCTCCCCACGCGGTAACGCGTGCCTCTAGGCCCAAAAGGCACGGTGTTCACAGCACCCTTTGGATGGCGGGGGTGCCCCCCTCCGCACTTAAAGTAGAAAAACAGCTTAGTAGTCAAATAACATGGCTTTCCTCAAGCATTCAGTGCTACATGGGACTGAAGGATGCCCAGAAGGTACCCGCAGGCAACGATAAGCTCACTGTGGATCTGATCTGGGGCCCTGGGCCAGGTGCTATACACCTGGTTAAAACCAAATCTGGTAGTCAGGGTTAAAAAACGTCTAAGTCCCACCCCCCCGGGGACGGGGGGTTCCCTTAAACCCTCAACTGACACC
B8: Bat Picornavirus 2 (nucleic acid)
DNA: GGGTTTTACGAAACCCGTATACACCAGACCTTTTCTCCCCTCCCCCTCCACCTACCTTTTCCCCCTCTTTGGACCGAAACAAGGACACGTAAGTGGAAACGCGATTTTATATGTGGTTGGCCACCACGGAATAACGGCAATTGTCTACATGTGGGAAGTGCAACCTCCCTAGCCGATAACCCCTGACCGGGTGTGTAGGATAGGAAAGGTGCCCACTGTGGGCGACAGGTTATGGTAGAGTGGATACCTAGCCAGGGGCAATGGGACTGCTTTGCATATCCCTAATGAAGTATTGAGATTTCTCTGCTCATTACCCGGTGATGGTTGTGTGGGGGGGGCCCCATACACTAGATCCATACTGCCTGATAGGGTCGCGGCTGGCCGACCATAACCTGTATAGTCAGTTGAATTCAGCCAAG
B9: Bat sapelovirus (nucleic acid, listed as Sapelovirus sp.)
DNA: GACAGGTGTTTTGGAGGGCGGATGACGATATCTGGCTGGCCACCAGGGAATAACGGCAAATGTCTGATCATACGGTTCACAAGTCTACCGGCGATAGTGGTTCAACACCATGTGTAGCAGGGATTCTTGCGTATGTGAAGGCGACAGTGC
B10: Hepacivirus J (nucleic acid)
DNA: GCCGCTCCCGAAAGGGAGTCCGGCGCGTCATCCCACTCCGAGGAGTGGGGTGGCGTCCCCGTGTGCCGGGGAACCATGAAGCCTAAGGGCATCCACATTTTAGAATGAACTTGAAGCTTCGTTTCGCTGGCCGGAAAGTCCTGGGTTCCCATGGCCAGGGTTCCGCAGGTGGGTAAATCCCGGTGGGGTTCCATCCAGGATATACGGCAGGCGGGCGTAGTCCGGCGGTTCGGACGACGTGTGGGTCGCCTACGGTGGATTGTTCACAGGATGGGCACTCCGGTGTGAATAGGCCCCGTCAGGGTGCGCTGACGTTAAACTCAGGCCTTGCCTGGTGTTCGGGGAGGATTGCAGGGCCACGCCGCCTCTAAGGGCCGTATGGCACAGTACTTCTTCGGGCGGGTTGTCAAGGCCCTCCAACGCGACACCAGTGCCTCGGCAGGCATGGGGCCACCCAGCTCGGCGTCCCGCACACAGACGGCGTAGGGGAAAATCAGCAATGTGACCCCGGGTGGCATTTTCCTTCTCTCTACTTCCATGCATGATCAACCGCAATC
modifications: Hepacivirus J
B11: Ball python nidovirus (nucleic acid)
DNA: CCCCTTCACCCATAGGCACTAGGAGAACAGGATAACCCCTAACGGGGCATCCTGCCTGTGACCTTTCAGATTCGCTAGTTAGATATCTTCACAGACTCTGCTAGGCTTCTGACCCAGTCCGTTCCCAAAGTCCGTTACCGCCCGAGTAGCGCTTAGGCGCGAAAGGGACGGAAGTACCTCCAGTAAGCGAAAGCTGAAGTAAGGGAAATACGGCAAGACTAACTTGTTAGTCTTACAGTGTGGATAACCTGGTAGTTATCCCCGACAAGAGACCTGACTCGATGTGAAAACATCCAACTAGGTTGGCTTCAAACTAGCTACAGGCAGGATATCCCCCAACGGGGCCTCCAAGGAATCGAGAACCAACCCTCATTCCACGTCTGTAGTAAGCAAAAACAGGGGCGATCTTCACCGACACCTCTCACCACAGAGCACACCAACCTCTGTGAAGCCAATTTCCTCGTCCAAGGACAGGTTATTGAGGGTCAACTTTCTTCCGACCAGAAGAAGGGATTTCCTACCAAAAGAAAAACCAAATCCACCAACACCACAAGGTAAAACAACAACTTGTGAAGCCAATACTTAGTCAAAGACTAACTATTGAGGGTCAACTTTCTCTTCAATAGAGAAGGGATTTCCTGGTAAAACAAATAACAACAACTAACATCAGCAACT
modifications: Ball python nidovirus

In this series the test system is HEK293 cells. It counts as cell-based, human. To be noted: luminescence from secreted Gluc in supernatant 24 hours after transfection of HEK293 cells; circular RNA encoding Gluc with the named IRES (UTR truncated to 675 nt).
Regarding B1, the Expression was 8.42E+05. In the case of B2 it was 7.65E+04; in that of B3, 1.19E+05. As for B4, the figure is 4.41E+06; as for B5, 8.47E+04. As for B6, the figure is 8.42E+04; as for B7, 5.05E+06.

The molecule B8 came in with an Expression of 7.99E+07. As for B9, the figure is 8.05E+04; as for B10, 7.65E+04; as for B11, 8.25E+04.
